Several values for one entry are separate records, joined by “and”; a condition that tells them apart may be missing. Identical values can stand only once.
How the values were obtained:
SARS-COV-2 RBD-MMH [1] = biological target: SARS-COV-2 RBD-MMH (SARS-CoV-2); experiment: SPR 37C, run with dissociation at pH 7.4
[2] = biological target: human FcγR3a 176Val allotype receptor (human, UniProt P08637 17-254); experiment: cell-based or functional assay
SARS-COV-2 RBD-MMH [3] = biological target: SARS-COV-2 RBD-MMH (SARS-CoV-2); experiment: SPR 37C, run with dissociation at pH 5.0
[4] = biological target: SARS-CoV-2 RBD.mmh (Spike amino acids Arg319-Phe541 with C-terminal myc-myc-6-Histidine tag) (SARS-CoV-2, UniProt P0DTC2 319-541)
[5] = biological target: T1, SARS-COV-2 RBD-MMH (SARS-COV-2 RBD extracellular domain with C-terminal myc-myc-hexahistidine tag) (SARS-CoV-2)
[6] = biological target: T1, SARS-COV-2 RBD-MMH (SARS-COV-2 RBD …); experiment: SPR 37C, mAb captured, pH 7.4 vs pH 6.0

Binder	RBD.mmh Bound at pH 7.4 (RU) (SARS-COV-2 RBD-MMH [1])	koff (SARS-COV-2 RBD-MMH [1])	EC50 (M), Jurkat/CD20/spike [2]	Fold induction, Jurkat CD20 [2]	Fold induction, Jurkat/CD20/spike [2]	RBD.mmh Bound at pH 7.4 (RU) (SARS-COV-2 RBD-MMH [3])	koff (SARS-COV-2 RBD-MMH [3])	t½ (SARS-COV-2 RBD-MMH [3])	IC50 [4]	koff [5]	t½ at pH 6.0 [5]	t½ at pH 7.4 [5]	t½ Ratio of pH 7.4 to pH 6.0 [6]
mAb14285 (antibody) heavy: not shown light: QSALTQPASVSGSPGQSITISCTGTSSDVESYNLVSWYQQHPGKAPKLMIYEGSKRPSGVSNRFSGSKSGNTASLTISGLQAEDEADYYCSSYAGSSTWVFGGGTKLTVLGQPKAAPSVTLFPPSSEELQANKATLVCLISDFYPGAVTVAWKADSSPVKAGVETTTPSKQSNNKYAASSYLSLTPEQWKSHRSYSCQVTHEGSTVEKTVAPTECS	64.2 RU	0.0258 s⁻¹	2.43e-10 M	1.1 fold	11 fold	51.5 RU	0.0025 s⁻¹	4.6 min					
mAb14314 (antibody) heavy: not shown light: QSVLTQPPSVSAAPGQKVTISCSGSISNIGNNYVSWYQQLPGTAPKLLIYDNDKRPSGIPDRFSGSRSGTSATLGITGLQTGDEADYYCGTWDSSLTAYVFGTGTKVTVLGQPKAAPSVTLFPPSSEELQANKATLVCLISDFYPGAVTVAWKADSSPVKAGVETTTPSKQSNNKYAASSYLSLTPEQWKSHRSYSCQVTHEGSTVEKTVAPTECS				1.1 fold	3.9 fold								
mAb14255 (antibody, V domains shown) VH: QVQLQESGPGLVKPSETLSLTCTVSGGSISGYYWSWIRQPPGKGLDWIGYIYYRGNTNYNPSLKSRVTISVDTSNNQFSLKLSSVTAADTAVYYCARYGEGYGDASGYHFDYWGQGTLVTVSS VL: QSALTQPASVSGSPGQSITISCTGTSSDVGSYNLVSWYQQHPGKAPKLMIYEDSKRPSGVANPFSGSKSGNTASLTISGLQAEDEADYYCSSYAGSSTWVFGGGTKLTVLG									0.157 nM	0.00513 s⁻¹	2.3 min	2.3 min	1
mAb14232 (antibody) heavy: not shown light: QSALTQPPSASGSPGQSVTISCTATSSDVGNYNYVSWYQQHPGKAPKLMIYEVTKRPSGVPDRFSGSKSGNTASLTVSGLQAEDEADYYCSSYAGSWGVFGGGTKLTVLGQPKAAPSVTLFPPSSEELQANKATLVCLISDFYPGAVTVAWKADSSPVKAGVETTTPSKQSNNKYAASSYLSLTPEQWKSHRSYSCQVTHEGSTVEKTVAPTECS	8.2 RU	0.0311 s⁻¹	1.31e-10 M	1.2 fold	10.8 fold	10.1 RU	0.000656 s⁻¹	17.6 min					
mAb14280 (antibody, V domains shown) VH: QVQLVQSGAEVKKPGASVRVSCKASGYTFTGNYIHWVRQAPGQGLEWMAWINPNSGGKNYAQKFQGRVTLTRDTSVNTAYMELSRLRSDDTAMYYCARDVNYNILTGPGGLWGQGTLVTVSS VL: QSALTQPPSASGSPGQSVTISCTGTSSDVGGYNFVSWYQQHPGKAPKLMIYEVSKRPSGVPDRFSGSKSGNTASLTVSGLQAEDEADYYCSSYAGSNNFVFGTGTKVTVLG									1.74 nM	0.019 s⁻¹	0.6 min	0.5 min	0.8
mAb14230 (antibody, V domains shown) VH: EVQLVESGGGLIQPGRSLRLSCAASGFTFDDYAMHWVRQAPGKGLEWVSGISWNSVSIDYADSVKGRFTISRDNAKNSLYLQMTSLTVEDTALYYCAKAFGYETLTGSDYFAYWGPGTLVTVSS VL: EIVLTQSPGTLSLSPGERATLSCRASQTVISTYLAWYQQKPGQSPRLLIYGASSRATGIPDRFSGSGSGTDFTLTISRLEPEDFAVYYCQQYGSSPQLTFGGGTKVEIKR									9.97 nM	0.00797 s⁻¹	1.4 min	1.5 min	1.1
mAb14234 (antibody, V domains shown) VH: QVQLVESGGGVVQPGRSLRLSCAASGFTFSSYGIHWVRQAPGKGLEWVAIIWYDGSEKYYADSVKGRFTISRDNSKNTLFLQMNSLEAEDTAVYYCARGPDLLTGYYNYFYYGMDVWGQGTTVTVSS VL: QSVLTQPPSVSGAPGQRVTISCTGSSSNIGIGYDVHWYQQLPGTVPKLLIYGNTNRPSGVPDRFSGSKSGTSASLAITGLQAEDEADYYCQSYDSSLSSYVFGTGTKVTVLG									4.62 nM	0.00143 s⁻¹	8.1 min	5.2 min	0.6
mAb14232 (antibody, V domains shown) VH: QITLKESGPTLVKPTQTLTLTCTFSGFSLSASGVGVGWIRQPPGKALEWLALIYWDDDKRYSPSLKSRLTITKDTSKNQVVLTMTNMDPVDTATYYCAQHKVATIFDYWGQGTLVTVSS VL: QSALTQPPSASGSPGQSVTISCTATSSDVGNYNYVSWYQQHPGKAPKLMIYEVTKRPSGVPDRFSGSKSGNTASLTVSGLQAEDEADYYCSSYAGSWGVFGGGTKLTVLG									18 nM	0.0124 s⁻¹	0.9 min	0.4 min	0.4
mAb14247 (antibody, V domains shown) VH: QITLKESGPTLVKPTQTLTLTCTFSGFSLSTSAVGVGWIRQPPGKALEWLALIYWDDDKRYSPSLKSRLTITKDTSKNQLVLTMTNVDPVDTATYYCAHHTIQLIFDYWGQGTLVTVSS VL: QSALTQPASVSGSPGQSITISCTATSSDVGNYNYVSWYQQHPGKAPKLMIYEVSNRPSGVSNRFSGSKSGNTASLTISGLQAEDEADYYCSSYTSSSTPLVFGGGTKLTVLG									0.446 nM	0.00167 s⁻¹	6.9 min	7.3 min	1.1
mAb13458 (antibody, V domains shown) VH: EVQLVESGGGLVQPGRSLRLSCAASGFTFDDYAMHWVRQAPGKGLEWVSGISWNSGSIGYADSVKGRFTISRDNAKNSLYLQMNSLRAEDTALYYCAKDIGITTPYWGQGTLVTVSS VL: AIQMTQSPSSLSASVGDRVTITCRASQDIRNDLGWYQQKPGKAPKLLIYSASSLQTGVPSRFSGSGSGTDFTLTISSLHPEDFATYYCLQDYWYTWTFGQGTKVEIKR									0.873 nM	0.00199 s⁻¹	5.8 min	7.2 min	1.2
mAb13459 (antibody, V domains shown) VH: EVQLVESGGGLVQPGRSLRLSCAASGFTFDDYAMHWVRQAPGKGLEWVSGISWNSGSIGYADSVKGRFTISRDNAKNSLYLQMNSLRAEDTALYYCAKDIGITTPYWGQGTLVTVSS VL: AIQMTQSPSSLSASVGDRVTITCRASQDIRNDLGWYQQKPGKAPKLLIYSASSLQTGVPSRFSGSGSGTDFTLTISSLHPEDFATYYCLQDYNYVWTFGQGTKVEIKR									4.43 nM	0.00229 s⁻¹ and 0.00239 s⁻¹	4.8 min	5.1 min	1.1
mAb14235 (antibody, V domains shown) VH: QITLKESGPTLVKPTQTLTLTCTFSGFSLNTGGVGVGWIRQPPGNALEWLALIYWDDDKRYNPSLKTRLTISKDTSKNQVVLTMTNMDPVDTATYFCAHLTIAVIVDFWGQGTLVTVSS VL: QSALTQPASVSGSPGQSITISCTATSSDVGTYNYVSWFQHHPGKAPKLMIYEVTNRPSGVSNRFSGSKSGNTASLTISGLQAEDEADYYCSSYTTTSIVFGGGTKLTVLG									0.234 nM	0.00114 s⁻¹	10.1 min	7.8 min	0.8
mAb14295 (antibody) heavy: not shown light: DIQMTQSPSSLSASVGDRVTITCRASQSINTYLNWYQQKPGKAPNLLIDGASSLQSGVPSRFSGSGSGTDFILTISSLRPEDFATYYCQQSYSIPLTFGGGTRVEIKRTVAAPSVFIFPPSDEQLKSGTASVVCLLNNFYPREAKVQWKVDNALQSGNSQESVTEQDSKDSTYSLSSTLTLSKADYEKHKVYACEVTHQGLSSPVTKSFNRGEC			1.93e-10 M	1 fold	11.5 fold								
mAb14257 (antibody, V domains shown) VH: EVQLVESGGGLVQPGGSLRLSCAASGFTVSRSYMNWVRQAPGKGLEWVSVVFTGGTTKHTDSVKGRFTISRDNSMNTLYLQMNSLRPEDTAVYYCARVAIVETTGAFDIWGQGTMVTVSS VL: QSVLTQPPSVSGAPGQRVTISCTGTSSNIGADFDVHWYQQFPGTAPKLLIYGHTNRPSGIPDRFSGSKSGTSASLAITGLQAEDEADYYCQSYDSSLSGSVVFGGGTKLTVLG									0.365 nM	0.00842 s⁻¹	1.4 min	1.5 min	1.1
mAb14256 (antibody, V domains shown) VH: QVQLQESGPGLVKPSETLSLTCTVSGGSISSHYWSWIRQPPGKGLEWIGYIYYSGSSNYNPSLKSRVTISVDTSKNQFSLKLNSVTAADTAVYYCARHYDILTGFDWFDPWGQGTLVTVSS VL: QSVLTQPPSVSGAPGQRVTISCTGSSSNIGTHYDVHWYQQLPGTAPKLLIYGNSNRPSGVPDRFSGSKSGTSASLAITGLQAEDEADYYCQSFDNSLTAPYVFGTGTKVTVLG									0.48 nM	0.00955 s⁻¹	1.2 min	1 min	0.8
mAb14258 (antibody, V domains shown) VH: QLQLQESGPGLVKPSETLSLICTGSGDSISSSHYYWGWIRQPPGKGLEWIGSTYFSGSTYYNPSLKSRVSISVDTSKNQVSLKLISVTAADTAVYYCAREMGATLGDYWGPGTLVTVSS VL: QSVLTQPPSASGTPGQRVTISCSGSSSNIGNNYVYWYQQFPGTTPRLLIYRNNERPSGVPDRFSGSKSGTSASLVISGLRSEDEADYYCAAWDDSLSAHYVFGTGTKVTVLG									0.121 nM		21.1 min	5.4 min	0.3
